According to article PMC9863593, “Crystal Structure of Allantoinase from Escherichia coli BL21: A Molecular Insight into a Role of the Active Site Loops in Catalysis” (Molecules, 2023):

Target: the molecule itself
Test: crystal structure; hanging drop vapor diffusion, room temperature, 20% PEG8000, 100 mM CHES pH 9.5; protein at 30 mg/mL; space group C121; four monomers per asymmetric unit; 2.07 Å

B1: Allantoinase from Escherichia coli BL21 (enzyme)
chain: MSFDLIIKNGTVILENEARVVDIAVKGGKIAAIGQDLGDAKEVMDASGLVVSPGMVDAHTHISEPGRSHWEGYETGTRAAAKGGITTMIEMPLNQLPATVDRASIELKFDAAKGKLTIDAAQLGGLVSYNIDRLHELDEVGVVGFKCFVATCGDRGIDNDFRDVNDWQFFKGAQKLGELGQPVLVHCENALICDELGEEAKREGRVTAHDYVASRPVFTEVEAIRRVLYLAKVAGCRLHVCHVSSPEGVEEVTRARQEGQDVTCESCPHYFVLDTDQFEEIGTLAKCSPPIRDLENQKGMWEKLFNGEIDCLVSDHSPCPPEMKAGNIMEAWGGIAGLQNCMDVMFDEAVQKRGMSLPMFGKLMATNAADIFGLQQKGRIAPGKDADFVFIQPNSSYVLTNDDLEYRHKVSPYVGRTIGARITKTILRGDVIYDIEQGFPVAPKGQFILKHQQ
modifications: carbamylated lysine at 146 (Kcx146)
notes: Allantoinase (allB, ECD_00462) of E. coli BL21; predicted monomer of 453 amino acid residues, 49.6 kDa; Zinc-amended enzyme with 2 Zn ions per monomer; construct limits and tag are not described here; Residues 452-453 are said to be seen in the structure; also called EcALLase-BL21; E. coli BL21 ALLase
stoichiometry N: 4
